Data as given in PMC4330387.

How the values were obtained:
GST-ZFDBD-ZBTB2 = target: T1, GST-ZFDBD-ZBTB2 (human, UniProt Q8N680 254-468); experiment: EMSA
T1 sequence: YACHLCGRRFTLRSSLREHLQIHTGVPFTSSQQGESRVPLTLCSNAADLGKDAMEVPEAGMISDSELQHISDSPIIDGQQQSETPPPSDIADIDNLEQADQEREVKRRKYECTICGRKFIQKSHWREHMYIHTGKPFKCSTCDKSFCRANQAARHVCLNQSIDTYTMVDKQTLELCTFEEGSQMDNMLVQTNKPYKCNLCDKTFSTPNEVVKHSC

Sp1 (recombinant) = Sp1 (recombinant) (UniProt P08047 1-785); experiment: EMSA
Sp1 (recombinant), sequence (P08047 whole entry): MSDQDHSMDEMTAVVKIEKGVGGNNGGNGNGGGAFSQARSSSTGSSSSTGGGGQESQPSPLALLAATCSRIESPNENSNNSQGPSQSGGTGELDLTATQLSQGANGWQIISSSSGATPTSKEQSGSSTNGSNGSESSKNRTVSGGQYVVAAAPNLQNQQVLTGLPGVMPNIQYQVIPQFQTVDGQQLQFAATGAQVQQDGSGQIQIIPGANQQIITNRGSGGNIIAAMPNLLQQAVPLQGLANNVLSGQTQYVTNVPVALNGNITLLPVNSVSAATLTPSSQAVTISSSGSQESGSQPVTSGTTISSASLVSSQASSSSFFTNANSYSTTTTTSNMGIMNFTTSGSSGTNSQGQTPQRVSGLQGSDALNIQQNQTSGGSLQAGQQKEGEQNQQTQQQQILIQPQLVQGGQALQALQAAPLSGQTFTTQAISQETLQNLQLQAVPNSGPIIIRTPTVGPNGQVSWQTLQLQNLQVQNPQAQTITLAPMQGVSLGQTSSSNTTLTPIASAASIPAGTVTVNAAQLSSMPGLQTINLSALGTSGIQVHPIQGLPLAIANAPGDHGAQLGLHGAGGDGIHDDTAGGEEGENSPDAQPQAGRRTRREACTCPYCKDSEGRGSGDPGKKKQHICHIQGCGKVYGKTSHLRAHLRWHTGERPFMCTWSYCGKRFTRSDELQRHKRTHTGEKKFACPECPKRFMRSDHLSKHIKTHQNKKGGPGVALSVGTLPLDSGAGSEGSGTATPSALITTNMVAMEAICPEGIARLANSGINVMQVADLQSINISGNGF

B1: GC-box #3 EMSA probe (dsDNA)
DNA 1: GATCTTTCCCTGCGCGGGGCGGGCGGCCGCAGCCC
DNA 2: GGGCTGCGGCCGCCCGCCCCGCGCAGGGAAAGATC
Question: What does the source list for B1?
Answer: binding result (GST-ZFDBD-ZBTB2): binds; binding result (Sp1 (recombinant)): binds
